According to patent US20260226187A1 (BIOATLA, published 2026):

What was measured:
Test in all cases: cell-based or functional assay
[1] = target: T1, Human EpCAM expressed on cells (CHO-hEpCAM, HCT116) (human, UniProt P16422 24-314)
T1 sequence (looked up): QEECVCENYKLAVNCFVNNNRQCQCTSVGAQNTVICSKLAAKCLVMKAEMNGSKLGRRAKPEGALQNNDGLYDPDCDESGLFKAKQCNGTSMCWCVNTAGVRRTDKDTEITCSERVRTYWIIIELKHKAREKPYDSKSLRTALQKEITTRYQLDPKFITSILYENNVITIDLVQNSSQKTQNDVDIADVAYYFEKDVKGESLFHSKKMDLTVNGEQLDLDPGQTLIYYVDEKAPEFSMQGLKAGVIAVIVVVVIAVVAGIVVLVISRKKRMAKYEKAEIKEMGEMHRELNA

[2] = target: T1, Human EpCAM expressed on cells …; remark: listed apart in the source
[3] = target: Cynomolgus EpCAM expressed on CHO cells (cynomolgus monkey)
Sequence of Cynomolgus EpCAM expressed on CHO cells (cynomolgus monkey) (Q1WER1 24-314): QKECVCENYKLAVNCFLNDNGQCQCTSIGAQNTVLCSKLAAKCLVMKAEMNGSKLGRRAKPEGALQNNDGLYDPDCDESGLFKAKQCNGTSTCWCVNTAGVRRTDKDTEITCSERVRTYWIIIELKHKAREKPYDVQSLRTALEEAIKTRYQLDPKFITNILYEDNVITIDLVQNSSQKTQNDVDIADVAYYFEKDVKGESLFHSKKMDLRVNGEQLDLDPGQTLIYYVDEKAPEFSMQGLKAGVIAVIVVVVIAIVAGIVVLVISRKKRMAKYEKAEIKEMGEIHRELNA

[4] = target: T1, Human EpCAM expressed on cells …; remark: listed apart in the source
[5] = target: Cynomolgus EpCAM expressed on CHO cells (cynomolgus monkey); remark: listed apart in the source
[6] = target: T1, Human EpCAM expressed on cells …; remark: listed apart in the source

B1: BA3182 (bispecific antibody, human IgG1, kappa, N297Q)
light: DIQMTQSPSSLSASVGDRVTITCSASSSISYMHWYQQKPGQAPRLLIYSTSNLASGVPSRFSGSGSGTDFTFTISSLEAEDAATYYCHQWSTYHTFGQGTKVEIKRTVAAPSVFIFPPSDEQLKSGTASVVCLLNNFYPREAKVQWKVDNALQSGNSQESVTEQDSKDSTYSLSSTLTLSKADYEKHKVYACEVTHQGLSSPVTKSFNRGECSRSGGGGEVQLVESGGGLVQPGGSLRLSCAASGFTFNTYAMNWVRQAPGKGLEWVARIRSKYNNYATYYADSVKDRFTISRDDSKNSLYLQMNSLKTEDTAVYYCVRHSNFGNSKVSWFAYWGQGTLVTVSSGGSGGSGGSGGSGGQAVVTQEPSLTVSPGGTVTLTCRSSAGAVTTSNYDNWVQQKPGQAPRGLIGGTNKRAPWTPARFSGSLLGGKAALTITGAQAEDEADYYCALWYSNLWVFGGGTKLTVLSR
heavy: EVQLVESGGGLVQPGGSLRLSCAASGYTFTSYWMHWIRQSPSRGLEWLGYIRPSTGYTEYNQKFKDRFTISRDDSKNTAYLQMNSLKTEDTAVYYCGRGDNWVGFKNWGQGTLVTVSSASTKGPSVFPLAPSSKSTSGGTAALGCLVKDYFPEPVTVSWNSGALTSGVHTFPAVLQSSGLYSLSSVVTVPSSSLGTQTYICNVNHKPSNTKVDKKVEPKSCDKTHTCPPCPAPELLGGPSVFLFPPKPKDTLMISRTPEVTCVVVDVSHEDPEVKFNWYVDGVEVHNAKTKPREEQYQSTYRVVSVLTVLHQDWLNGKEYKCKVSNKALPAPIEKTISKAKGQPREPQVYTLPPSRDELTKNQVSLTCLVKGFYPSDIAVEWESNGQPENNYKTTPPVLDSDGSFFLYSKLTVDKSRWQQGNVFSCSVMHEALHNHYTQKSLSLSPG
notes: Human IgG1,k aglycosylated mutant (N297Q) with an anti-CD3 scFv on the C-terminus of each light chain; 200 kDa used for molar concentrations; also called BAP150.31-BF45; BA150.31-BF45
- EC50 IL-2 release, human PBMC co-cultured with HCT116, pH 6.5, donor 3371 [1]: 4.56 nM
- EC50 IL-2 release, human PBMC co-cultured with HCT116, pH 6.5, donor 3378 [1]: 7.85 nM
- EC50 IL-2 release, human PBMC co-cultured with HCT116, pH 6.5, donor 3397 [1]: 9.82 nM
- EC50 IL-2 release, human PBMC co-cultured with HCT116, pH 6.5, donor 3411 [1]: 4.92 nM
- EC50 IL-2 release, human PBMC co-cultured with HCT116, pH 6.5, donor 75377 [1]: 23.2 nM
- EC50 IL-2 release, human PBMC co-cultured with HCT116, pH 6.5, donor 77535 [1]: 19.7 nM
- EC50 IL-2 release, human PBMC co-cultured with HCT116, pH 6.5, donor 85639 [1]: 25.6 nM
- EC50 IL-2 release, human PBMC co-cultured with HCT116, pH 6.5, donor 97529 [1]: 15 nM
- EC50 INFγ release, human PBMC co-cultured with HCT116, pH 6.5, donor 3371 [1]: 5.28 nM
- EC50 INFγ release, human PBMC co-cultured with HCT116, pH 6.5, donor 3378 [1]: 6.45 nM
- EC50 INFγ release, human PBMC co-cultured with HCT116, pH 6.5, donor 3397 [1]: 10.1 nM
- EC50 INFγ release, human PBMC co-cultured with HCT116, pH 6.5, donor 3411 [1]: 2.54 nM
- EC50 INFγ release, human PBMC co-cultured with HCT116, pH 6.5, donor 75377 [1]: 2.53 nM
- EC50 INFγ release, human PBMC co-cultured with HCT116, pH 6.5, donor 77535 [1]: 24 nM
- EC50 INFγ release, human PBMC co-cultured with HCT116, pH 6.5, donor 97529 [1]: 2.52 nM
- EC50, cytolysis of HCT116 cells by human PBMC, pH 6.5, donor 13143 [2]: 1.66 pM
- EC50, cytolysis of HCT116 cells by human PBMC, pH 6.5, donor 13290 [2]: 1.03 pM
- EC50, cytolysis of HCT116 cells by human PBMC, pH 6.5, donor 13292 [2]: 2.05 pM
- EC50, cytolysis of HCT116 cells by human PBMC, pH 6.5, donor 13371 [2]: 0.79 pM
- EC50, cytolysis of HCT116 cells by human PBMC, pH 6.5, donor 13397 [2]: 1.19 pM
- EC50, cytolysis of HCT116 cells by human PBMC, pH 6.5, donor 13411 [2]: 1.39 pM
- EC50, cytolysis of HCT116 cells by human PBMC, pH 6.5, donor 75377 [2]: 0.6 pM
- EC50, cytolysis of HCT116 cells by human PBMC, pH 6.5, donor 77535 [2]: 1.52 pM
- EC50, cytolysis of HCT116 cells by human PBMC, pH 6.5, donor 85639 [2]: 0.88 pM
- EC50, cytolysis of HCT116 cells by human PBMC, pH 6.5, donor 97529 [2]: 2.95 pM
- EC50, cytolysis of HCT116 cells by human PBMC, pH 7.4, donor 13143 [2]: 8.73 pM
- EC50, cytolysis of HCT116 cells by human PBMC, pH 7.4, donor 13290 [2]: 4.37 pM
- EC50, cytolysis of HCT116 cells by human PBMC, pH 7.4, donor 13292 [2]: 6.35 pM
- EC50, cytolysis of HCT116 cells by human PBMC, pH 7.4, donor 13371 [2]: 6.96 pM
- EC50, cytolysis of HCT116 cells by human PBMC, pH 7.4, donor 13397 [2]: 5.9 pM
- EC50, cytolysis of HCT116 cells by human PBMC, pH 7.4, donor 13411 [2]: 1.36 pM
- EC50, cytolysis of CHO cynoEpCAM cells by cyno PBMC, pH 6.5, Experiment-1 [3]: 18.9 pM
- EC50, cytolysis of CHO cynoEpCAM cells by cyno PBMC, pH 6.5, Experiment-2 [3]: 15.9 pM
- EC50, cytolysis of CHO cynoEpCAM cells by cyno PBMC, pH 6.5, Experiment-3 [3]: 17.4 pM
- EC50, cytolysis of CHO cynoEpCAM cells by cyno PBMC, pH 7.4, Experiment-1 [3]: 172 pM
- EC50, cytolysis of CHO cynoEpCAM cells by cyno PBMC, pH 7.4, Experiment-2 [3]: 215 pM
- EC50, cytolysis of CHO cynoEpCAM cells by cyno PBMC, pH 7.4, Experiment-3 [3]: 167 pM
- EC50, T cell activation bioassay (NFAT luminescence), HCT116 cells, pH 6.0, Experiment-1 [4]: 0.292 nM
- EC50, T cell activation bioassay (NFAT luminescence), HCT116 cells, pH 6.0, Experiment-2 [4]: 0.288 nM
- EC50, T cell activation bioassay (NFAT luminescence), HCT116 cells, pH 6.0, Experiment-3 [4]: 0.238 nM
- EC50, T cell activation bioassay (NFAT luminescence), HCT116 cells, pH 7.4, Experiment-1 [4]: 1.86 nM
- EC50, T cell activation bioassay (NFAT luminescence), HCT116 cells, pH 7.4, Experiment-2 [4]: 2.15 nM
- EC50, T cell activation bioassay (NFAT luminescence), HCT116 cells, pH 7.4, Experiment-3 [4]: 1.96 nM
- EC50, T cell activation bioassay (NFAT luminescence), CHO cynoEpCAM cells, pH 6.0, Experiment-1 [5]: 0.545 nM
- EC50, T cell activation bioassay (NFAT luminescence), CHO cynoEpCAM cells, pH 6.0, Experiment-2 [5]: 0.597 nM
- EC50, T cell activation bioassay (NFAT luminescence), CHO cynoEpCAM cells, pH 6.0, Experiment-3 [5]: 0.586 nM
- EC50, T cell activation bioassay (NFAT luminescence), CHO cynoEpCAM cells, pH 7.4, Experiment-1 [5]: 9.46 nM
- EC50, T cell activation bioassay (NFAT luminescence), CHO cynoEpCAM cells, pH 7.4, Experiment-2 [5]: 8.82 nM
- EC50, T cell activation bioassay (NFAT luminescence), CHO cynoEpCAM cells, pH 7.4, Experiment-3 [5]: 10.7 nM
- EC50, T cell activation bioassay (NFAT luminescence), CHO hEpCAM cells, pH 6.0, Experiment-1 [6]: 51 pM
- EC50, T cell activation bioassay (NFAT luminescence), CHO hEpCAM cells, pH 6.0, Experiment-2 [6]: 49 pM
- EC50, T cell activation bioassay (NFAT luminescence), CHO hEpCAM cells, pH 6.0, Experiment-3 [6]: 48 pM
- EC50, T cell activation bioassay (NFAT luminescence), CHO hEpCAM cells, pH 7.4, Experiment-1 [6]: 0.358 nM
- EC50, T cell activation bioassay (NFAT luminescence), CHO hEpCAM cells, pH 7.4, Experiment-2 [6]: 0.387 nM
- EC50, T cell activation bioassay (NFAT luminescence), CHO hEpCAM cells, pH 7.4, Experiment-3 [6]: 0.403 nM
